# Experimental data taken from patent US12049482B2, “Molecular switch-mediated control of engineered cells” (THE GENERAL HOSPITAL CORPORATION, priority 2017, dated 2024).
# Entries after “also recorded” stand apart in the source; their conditions may differ.
# Columns and labels:
# CRBN [1] = target: T1, CRBN (Homo sapiens, UniProt Q96SW2); settings: in vitro; cited from earlier work
# CRBN [2] = target: T1, CRBN; experiment: Pomalidomide-dependent degradation of IKZF3 degron with A153 substitutions; assay type: cell-based; parameters: endogenous in cells; settings: wtCRBN-expressing cells, pomalidomide dose-response
# Description: (§1) Transduced cells were incubated with a range of Pomalidomide concentrations or DMSO for 20 hours. Cells were analyzed by flow cytometry for eGFP and mCherry fluorescence. 1000 mCherry+ cells were analyzed per sample, and the geometric mean of the per-cell eGFP/mCherry ratio was calculated in Flowjo. In Pomalidomide dose titration studies, the EC50 was calculated by non-linear regression in Prism. Experiments were performed in triplicate. In some cases cell surface protein expression was assayed in parallel with the above reporter assay; cells were stained with anti-CD28-BV421 antibody (BD Biosciences 562613) at a 1:50 dilution in FACS buffer (PBS+2% FCS+2 mM EDTA) for 10 minutes on ice. Cells were washed with FACS buffer and analyzed by flow cytometry.
# K562-CD19 cells = experiment: Jurkat degron-tagged CAR-T co-culture with K562-CD19 (Myc-tag, CD69, IL2); assay type: cell-based, human
# Description: 100,000 CAR-T Jurkat cells were co-cultured with 20,000 K562 or K562-CD19 cells for 18 hours.
# Jurkat T cells lentivirally transduced with the genetic components described herein were co-cultured for 24 hours with K562 cells (human blast crisis Chronic Myeloid Leukemia cell line) lentivirally transduced with an expression vector encoding CD19 (referred to as K562-CD19) (G&P Biosciences LTV-CD19) or isogenic K562 cells lacking the target antigen. Both K562-CD19 and K562 cell lines were engineered to express homogenous high level mCherry expression via transduction with the Jenner lentivirus, allowing discrimination of K562 and Jurkat cells by flow cytometry. Unless otherwise specified, 50,000 Jurkat cells were co-cultured with 10,000 K562 cells in 110 ul of RPMI supplemented with Pen/Strep and 10% fetal calf serum for 24 hours. The supernatant was then harvested for cytokine secretion assays and IL2 concentration in the supernatant was performed according to manufacturer specifications (BD Biosciences 555190). The cells were analyzed by flow cytometry. Expression of the early activation marker CD69 (BioLegend 310910), myc tagged cell surface proteins (Cell Signaling Technologies 2233S), and fluorescent protein markers were assessed.
# CRL4^CRBN = target: T2, CRL4^CRBN (Homo sapiens, UniProt Q96SW2); experiment: GFP/mCherry reporter assay for degradation of degron-eGFP fusion proteins in Jurkat T cells; assay type: cell-based
# T2 construct: endogenous in cells; host or cells: Jurkat T cells (ligase endogenous; degron-eGFP reporters lentivirally transduced)
# T2 sequence (Q16531 whole entry partner, one chain of several, the tested form may be a part): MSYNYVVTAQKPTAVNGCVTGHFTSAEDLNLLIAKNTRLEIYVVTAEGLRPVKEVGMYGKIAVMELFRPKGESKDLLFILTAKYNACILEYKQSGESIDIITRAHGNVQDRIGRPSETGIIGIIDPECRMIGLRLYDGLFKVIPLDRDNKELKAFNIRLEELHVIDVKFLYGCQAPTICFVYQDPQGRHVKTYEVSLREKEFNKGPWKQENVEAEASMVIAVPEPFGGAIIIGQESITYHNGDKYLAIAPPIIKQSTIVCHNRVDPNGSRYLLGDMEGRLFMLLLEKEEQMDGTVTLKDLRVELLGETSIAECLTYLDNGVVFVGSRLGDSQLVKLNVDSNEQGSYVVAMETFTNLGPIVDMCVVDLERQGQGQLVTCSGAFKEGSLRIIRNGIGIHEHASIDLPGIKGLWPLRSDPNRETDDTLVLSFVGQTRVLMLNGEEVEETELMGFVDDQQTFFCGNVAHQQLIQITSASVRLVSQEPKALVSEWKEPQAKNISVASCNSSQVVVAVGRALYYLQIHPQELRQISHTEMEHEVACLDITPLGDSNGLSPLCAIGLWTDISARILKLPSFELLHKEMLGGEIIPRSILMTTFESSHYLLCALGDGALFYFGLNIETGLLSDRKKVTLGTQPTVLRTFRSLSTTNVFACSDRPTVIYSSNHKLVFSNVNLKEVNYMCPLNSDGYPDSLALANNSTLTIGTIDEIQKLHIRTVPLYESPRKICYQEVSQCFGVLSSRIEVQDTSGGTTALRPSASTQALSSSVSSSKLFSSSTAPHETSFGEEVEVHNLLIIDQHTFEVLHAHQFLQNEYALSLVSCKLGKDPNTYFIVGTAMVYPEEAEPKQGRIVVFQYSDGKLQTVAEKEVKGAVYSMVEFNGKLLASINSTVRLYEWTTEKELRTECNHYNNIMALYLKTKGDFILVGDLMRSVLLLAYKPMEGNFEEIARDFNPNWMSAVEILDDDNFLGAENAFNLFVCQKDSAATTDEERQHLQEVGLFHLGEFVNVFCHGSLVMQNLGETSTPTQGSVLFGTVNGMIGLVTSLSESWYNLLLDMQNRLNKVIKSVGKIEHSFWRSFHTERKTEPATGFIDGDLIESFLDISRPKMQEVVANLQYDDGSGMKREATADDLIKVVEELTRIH
# T2 sequence (Q13619 whole entry partner, one chain of several, the tested form may be a part): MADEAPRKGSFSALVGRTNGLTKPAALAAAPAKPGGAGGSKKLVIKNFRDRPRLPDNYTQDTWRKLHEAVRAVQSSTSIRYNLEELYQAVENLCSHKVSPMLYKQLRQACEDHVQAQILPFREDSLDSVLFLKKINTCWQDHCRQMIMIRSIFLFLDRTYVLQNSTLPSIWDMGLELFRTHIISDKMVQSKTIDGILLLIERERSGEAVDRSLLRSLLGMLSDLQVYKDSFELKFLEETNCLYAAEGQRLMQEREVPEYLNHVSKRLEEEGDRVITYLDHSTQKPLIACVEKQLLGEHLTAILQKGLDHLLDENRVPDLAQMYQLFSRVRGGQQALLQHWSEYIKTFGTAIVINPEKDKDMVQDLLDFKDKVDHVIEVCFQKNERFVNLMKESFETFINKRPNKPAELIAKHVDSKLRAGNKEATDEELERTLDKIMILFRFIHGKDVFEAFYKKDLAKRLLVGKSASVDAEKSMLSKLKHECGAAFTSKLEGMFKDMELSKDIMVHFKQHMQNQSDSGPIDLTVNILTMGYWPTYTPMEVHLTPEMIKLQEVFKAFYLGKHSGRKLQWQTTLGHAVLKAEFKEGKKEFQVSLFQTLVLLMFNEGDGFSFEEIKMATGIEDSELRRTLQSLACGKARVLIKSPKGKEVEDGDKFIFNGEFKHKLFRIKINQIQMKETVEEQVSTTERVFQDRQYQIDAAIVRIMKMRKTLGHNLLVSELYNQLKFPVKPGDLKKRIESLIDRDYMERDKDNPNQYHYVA
# T2 sequence (P62877 whole entry partner, one chain of several, the tested form may be a part): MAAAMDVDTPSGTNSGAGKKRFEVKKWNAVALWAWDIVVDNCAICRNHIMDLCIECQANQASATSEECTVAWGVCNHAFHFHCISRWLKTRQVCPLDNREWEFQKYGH
# T2 sequence (Q9UKT9 130-189 partner limits assumed, one chain of several): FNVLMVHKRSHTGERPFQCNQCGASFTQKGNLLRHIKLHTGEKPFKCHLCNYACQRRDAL
# Description: First, the FMC63 anti-CD19 scFv was exchanged for the CD28 Ig-like V-type extracellular domain. […] Experiments were performed in triplicate.
# as §1, with “Transduced cells were incubated with a range of Pomalidomide concentrations or DMSO for 20 hours.” left out
# First, the FMC63 anti-CD19 scFv was exchanged for the CD28 Ig-like V-type extracellular domain.
# IKZF3aa130-189 = experiment: BRET assay, dimerization of IKZF3aa130-189 with CRBN or minCRBN variants; assay type: cell-based, human; settings: pomalidomide dose-response
# Chain of IKZF3aa130-189 (Q9UKT9 130-189 limits assumed, one chain of several): as the sequence (Q9UKT9 130-189 partner limits assumed, one chain of several) above
# Description: Specifically, CRBN deletion variants were engineered to retain binding to Pom/IKZF3 but not DDB1/CUL4. Four deletion variants were generated in CRBN that removed the DDB1-binding domain, as shown in the middle image (NTD is the N-terminal domain; LLP1 is Lon-like protease domain 1 (split into LLP1-N and LLP1-C regions); TBD is the Thalidomide binding domain). At middle, BRET assays were performed upon 293T cells harboring bialleleic CRISPR/Cas9 disruption of endogenous CRBN (293T-CRBNΔe5), to assess dimerization between IKZF3aa130-189 and CRBN or minCRBN variants (dose-response data shown are CRBN, minCRBN1, minCRBN2, minCRBN3 and minCRBN4). […] Pomalidomide-dependent dimerization was observed between IKZF3aa130-189-HaloTag and CRBN-Nanoluciferase (NLuc) or minCRBN2-4-NLuc. […] 1 day after transfection, cells were exposed to 1 μM pomalidomide for the number of hours indicated and GFP and mCherry fluorescence was measured by flow cytometry (eGFPmCherry levels were detected as 0.5 or less for the CRBN trace).
# (§2) 293T cells were co-transfected with pFC14K and pFC32K plasmids expressing IKZF3-HaloTag and CRBN-Nanoluciferase fusion proteins and incubated overnight. Cells were then trypsinized and seeded into 96 well plates, at 40,000 cells per well. The BRET assay was performed per manufacturer's instructions (Promega™). In brief, cells were incubated for 2 hours with varying concentrations of Pomalidomide or DMSO, 10 μM MG132, and 100 nM HaloTag NanoBRET 618 Ligand. NanoBRET Nano-Glo substrate was added and donor (460 nm) and acceptor (618 nm) emission were measured within 10 minutes (EnVision, Perkin Elmer). Mean corrected milliBRET units (mBU) was calculated.
# Tested forms of minimal CRBN included minCRBN1, minCRBN2, minCRBN3 and minCRBN4, each of which were aligned against the wild-type CRBN (FIG. 1; all tested minCRBNs lacked the DDB1-binding domain—minCRBN1 comprised amino acids 339-442 of CRBN (including the TBD); minCRBN2 comprised amino acids 317-442 of CRBN (including TBD and an N-terminal extended sequence relative to minCRBN1); minCRBN3 included all CRBN sequence other than amino acids 194-207 (deletion of the DDB1-binding domain); and minCRBN4 included all sequences other than amino acids 187-260 (deletion of the DDB1-binding domain)).
# IKZF3 degron-GFP = experiment: eGFP/mCherry reporter, IKZF3 degron degradation with co-transfected CRBN or minCRBN1-4 in 293T-CRBNΔe5 cells; assay type: cell-based, human; settings: 1 μM pomalidomide, time course in hours, 293T-CRBNΔe5 cells
# Chain of IKZF3 degron-GFP (Q9UKT9 130-189 limits assumed, one chain of several): as the sequence (Q9UKT9 130-189 partner limits assumed, one chain of several) above
# Description: Specifically, CRBN deletion variants were engineered to retain binding to Pom/IKZF3 but not DDB1/CUL4. Four deletion variants were generated in CRBN that removed the DDB1-binding domain, as shown in the middle image (NTD is the N-terminal domain; LLP1 is Lon-like protease domain 1 (split into LLP1-N and LLP1-C regions); TBD is the Thalidomide binding domain). At middle, BRET assays were performed upon 293T cells harboring bialleleic CRISPR/Cas9 disruption of endogenous CRBN (293T-CRBNΔe5), to assess dimerization between IKZF3aa130-189 and CRBN or minCRBN variants (dose-response data shown are CRBN, minCRBN1, minCRBN2, minCRBN3 and minCRBN4). […] 1 day after transfection, cells were exposed to 1 μM pomalidomide for the number of hours indicated and GFP and mCherry fluorescence was measured by flow cytometry (eGFPmCherry levels were detected as 0.5 or less for the CRBN trace).
# Transduced cells were incubated with a range of Pomalidomide concentrations or DMSO for 20 hours. Cells were analyzed by flow cytometry for eGFP and mCherry fluorescence. 1000 mCherry+ cells were analyzed per sample, and the geometric mean of the per-cell eGFP/mCherry ratio was calculated in Flowjo. In Pomalidomide dose titration studies, the EC50 was calculated by non-linear regression in Prism. […] Cells were washed with FACS buffer and analyzed by flow cytometry.
# IKZF3 A153M = experiment: BRET, IKZF3 A153 substitutions with CRBN, CRBN V388A or CRBN I371A; assay type: cell-based, human; settings: 293T cells, 2 hours
# Chain of IKZF3 A153M (Q9UKT9 130-189 A153M limits assumed): as the sequence (Q9UKT9 130-189 partner limits assumed, one chain of several) above, with A24M counted along it
# Description: as §2
molecule,measurement,setting,value
"Nc1cccc2c1C(=O)N(C1CCC(=O)NC1=O)C2=O (stereo not shown) [pomalidomide, Pomalidomide]",binding to CRBN,CRBN [1],binds to CRBN in vitro
"O=C1CCC(N2C(=O)c3ccccc3C2=O)C(=O)N1 (stereo not shown) [thalidomide, Thalidomide]",binding to CRBN,CRBN [1],binds to CRBN in vitro
"A153D: IKZF3 degron polypeptide, amino acids 130-189 A153D, SEQ ID NO: 43",pomalidomide-dependent degradation of substituted IKZF3 degron,CRBN [2],most effective at disrupting pomalidomide-dependent IKZF3 degron degradation
"IKZF3 A153M: IKZF3 degron polypeptide, amino acids 130-189 A153M, SEQ ID NO: 36",pomalidomide-dependent degradation of substituted IKZF3 degron,CRBN [2],disrupted binding and degradation by CRBN
"d913: Hybrid degron, IKZF3 aa 130-145 + ZFP91 aa 400-410 + IKZF3 aa 157-189, SEQ ID NO: 95 (FNVLMVHKRSHTGERPLQCEICGFTCRQKGNLLRHIKLHTGEKPFKCHLCNYACQRRDAL)","drug control over CAR protein expression, activation and IL2 secretion","K562-CD19 cells; Jurkat CAR-T with K562 or K562-CD19, 18 hours","more robust control over CAR protein expression, activation, and cytokine secretion than the endogenous IKZF3 degron"
same,cell surface CAR expression (anti-Myc tag),"K562-CD19 cells; Jurkat T cells, no drug (tonic)",lower tonic CAR cell surface protein abundance versus the control CAR
"degron: IKZF3 degron polypeptide, amino acids 130-189, SEQ ID NO: 5, as eGFP fusion",degradation of degron-eGFP protein,CRL4^CRBN; by 1 hour after addition of 1 μM pomalidomide,~90%
same,EC50,"CRL4^CRBN; nM pomalidomide, Jurkat T cells",0.4 nM
"minCRBN4: All CRBN sequences other than amino acids 187-260 (deletion of the DDB1-binding domain), SEQ ID NO: 4 (protein) MAGEGDQQDAAHNMGNHLPLLPESEEEDEMEVEDQDSKEAKKPNIINFDTSLPTSHTYLGADMEEFHGRTLHDDDSCQVIPVLPQVMMILIPGQTLPLQLFHPQEVSMVRNLIQKDRTFAVLAYSNVQEREAQFGTTAEIYAYREEQDFGIEIVKVKAIGRQRFKVLELRTQSDGIQQAKVQILPLREWDENLKDDSLPSNPIDFSYRVAACLPIDDVLRIQLLKIGSAIQRLRCELDIMNKCTSLCCKQCQETEITTKNEIFSLSLCGPMAAYVNPHGYVHETLTVYKACNLNLIGRPSTEHSWFPGYAWTVAQCKICASHIGWKFTATKKDMSPQKFWGLTRSALLPTIPDTEDEISPDKVILCL",pomalidomide-dependent dimerization with IKZF3 degron (mBU),IKZF3aa130-189,pomalidomide-dependent interactions
"CRBN: Native Homo sapiens CRBN polypeptide, SEQ ID NO: 6; positive control (protein, listed as Homo sapiens) MAGEGDQQDAAHNMGNHLPLLPAESEEEDEMEVEDQDSKEAKKPNIINFDTSLPTSHTYLGADMEEFHGRTLHDDDSCQVIPVLPQVMMILIPGQTLPLQLFHPQEVSMVRNLIQKDRTFAVLAYSNVQEREAQFGTTAEIYAYREEQDFGIEIVKVKAIGRQRFKVLELRTQSDGIQQAKVQILPECVLPSTMSAVQLESLNKCQIFPSKPVSREDQCSYKWWQKYQKRKFHCANLTSWPRWLYSLYDAETLMDRIKKQLREWDENLKDDSLPSNPIDFSYRVAACLPIDDVLRIQLLKIGSAIQRLRCELDIMNKCTSLCCKQCQETEITTKNEIFSLSLCGPMAAYVNPHGYVHETLTVYKACNLNLIGRPSTEHSWFPGYAWTVAQCKICASHIGWKFTATKKDMSPQKFWGLTRSALLPTIPDTEDEISPDKVILCL",pomalidomide-dependent dimerization with IKZF3 degron (mBU),IKZF3aa130-189,pomalidomide-dependent interactions
same,eGFP/mCherry level of IKZF3 degron-GFP reporter,IKZF3 degron-GFP,≤ 0.5
same,eGFP/mCherry level of IKZF3 degron-GFP reporter,IKZF3 degron-GFP; listed as wild-type CRBN,successfully promoted degradation of the IKZF3 degron
"CRBN V388A: CRBN polypeptide with V388A substitution (protein, UniProt Q96SW2 1-442, looked up, variant V388A) Protein cereblon: MAGEGDQQDAAHNMGNHLPLLPAESEEEDEMEVEDQDSKEAKKPNIINFDTSLPTSHTYLGADMEEFHGRTLHDDDSCQVIPVLPQVMMILIPGQTLPLQLFHPQEVSMVRNLIQKDRTFAVLAYSNVQEREAQFGTTAEIYAYREEQDFGIEIVKVKAIGRQRFKVLELRTQSDGIQQAKVQILPECVLPSTMSAVQLESLNKCQIFPSKPVSREDQCSYKWWQKYQKRKFHCANLTSWPRWLYSLYDAETLMDRIKKQLREWDENLKDDSLPSNPIDFSYRVAACLPIDDVLRIQLLKIGSAIQRLRCELDIMNKCTSLCCKQCQETEITTKNEIFSLSLCGPMAAYVNPHGYVHETLTVYKACNLNLIGRPSTEHSWFPGYAWTAAQCKICASHIGWKFTATKKDMSPQKFWGLTRSALLPTIPDTEDEISPDKVILCL",pomalidomide-dependent binding with IKZF3 A153M,"IKZF3 A153M; 10 μM MG132, 1 μM pomalidomide and dose-response",restored binding affinity with IKZF3 A153M; also recorded: greatest restoration of pomalidomide-dependent binding
same,mBU fold change at 1 μM Pomalidomide/DMSO,"IKZF3 A153M; 10 μM MG132, mutant versus wild type CRBN",increased the mBU fold change versus wild type CRBN
"minCRBN1: Minimal CRBN, amino acids 339-442 of CRBN (including the TBD), SEQ ID NO: 1 (protein) SLSLCGPMAAYVNPHGYVHETLTVYKACNLNLIGRPSTEHSWFPGYAWTVAQCKICASHIGWKFTATKKDMSPQKFWGLTRSALLPTIPDTEDEISPDKVILCL",pomalidomide-dependent dimerization with IKZF3 degron (mBU),IKZF3aa130-189,dose-dependence was only not observed
"minCRBN2: Minimal CRBN, amino acids 317-442 of CRBN, SEQ ID NO: 2 (protein) CTSLCCKQCQETEITTKNEIFSLSLCGPMAAYVNPHGYVHETLTVYKACNLNLIGRPSTEHSWFPGYAWTVAQCKICASHIGWKFTATKKDMSPQKFWGLTRSALLPTIPDTEDEISPDKVILCL",pomalidomide-dependent dimerization with IKZF3 degron (mBU),IKZF3aa130-189,pomalidomide-dependent interactions
